Results published in paper PMC5331858.

B1: NubG-Pbs2 (full-length Pbs2p MYTH prey) (natural protein)
chain: MEDKFANLSLHEKTGKSSIQLNEQTGSDNGSAVKRTSSTSSHYNNINADLHARVKAFQEQRALKRSASVGSNQSEQDKGSSQSPKHIQQIVNKPLPPLPVAGSSKVSQRMSSQVVQASSKSTLKNVLDNQETQNITDVNINIDTTKITATTIGVNTGLPATDITPSVSNTASATHKAQLLNPNRRAPRRPLSTQHPTRPNVAPHKAPAIINTPKQSLSARRGLKLPPGGMSLKMPTKTAQQPQQFAPSPSNKKHIETLSNSKVVEGKRSNPGSLINGVQSTSTSSSTEGPHDTVGTTPRTGNSNNSSNSGSSGGGGLFANFSKYVDIKSGSLNFAGKLSLSSKGIDFSNGSSSRITLDELEFLDELGHGNYGNVSKVLHKPTNVIMATKEVRLELDEAKFRQILMELEVLHKCNSPYIVDFYGAFFIEGAVYMCMEYMDGGSLDKIYDESSEIGGIDEPQLAFIANAVIHGLKELKEQHNIIHRDVKPTNILCSANQGTVKLCDFGVSGNLVASLAKTNIGCQSYMAPERIKSLNPDRATYTVQSDIWSLGLSILEMALGRYPYPPETYDNIFSQLSAIVDGPPPRLPSDKFSSDAQDFVSLCLQKIPERRPTYAALTEHPWLVKYRNQDVHMSEYITERLERRNKILRERGENGLSKNVPALHMGGL

Assays:
[1] = target: CD4-Sho1-SH3-ΔAY (MYTH bait) (S. cerevisiae) (UniProt P40073); assay: two-hybrid
Chain of UniProt P40073 (P40073 298-367, stated change not applied): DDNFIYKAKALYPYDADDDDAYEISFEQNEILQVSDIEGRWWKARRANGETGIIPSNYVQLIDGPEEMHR

[2] = target: CD4-Sho1-SH3-I49A (MYTH bait) (S. cerevisiae); assay: two-hybrid

Molecule	fold change relative to wildtype Sho1p SH3 (β-galactosidase, Miller units) [1] [fold]	fold change relative to wildtype Sho1p SH3 (β-galactosidase, Miller units) [2] [fold]
Fps1-N (N-terminal soluble domain of Fps1p, NubG MYTH prey) (from UniProt P23900 1-255) (domain or fragment)	0.3	0.2
B1	0.5	–
